In patent US20210238276A1 (INTEGRAL MOLECULAR, published 2021):

T1: hsGLUT4 L155A (human, UniProt P14672 1-509)
T1 sequence: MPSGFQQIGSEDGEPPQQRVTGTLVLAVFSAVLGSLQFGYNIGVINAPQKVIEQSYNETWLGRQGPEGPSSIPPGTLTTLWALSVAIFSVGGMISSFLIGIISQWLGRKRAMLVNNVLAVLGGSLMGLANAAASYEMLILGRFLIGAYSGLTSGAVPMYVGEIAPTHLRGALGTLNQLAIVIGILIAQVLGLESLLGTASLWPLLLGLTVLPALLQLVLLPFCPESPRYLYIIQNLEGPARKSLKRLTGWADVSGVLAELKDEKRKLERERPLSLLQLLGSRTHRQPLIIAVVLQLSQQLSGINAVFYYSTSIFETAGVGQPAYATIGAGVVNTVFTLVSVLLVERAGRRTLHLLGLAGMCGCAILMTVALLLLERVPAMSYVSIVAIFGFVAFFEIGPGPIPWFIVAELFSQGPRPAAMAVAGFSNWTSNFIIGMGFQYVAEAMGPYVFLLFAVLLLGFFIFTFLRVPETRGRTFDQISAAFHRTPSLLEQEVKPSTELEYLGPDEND

T2: hsGLUT4 R416A (human, UniProt P14672 1-509)
T2 sequence: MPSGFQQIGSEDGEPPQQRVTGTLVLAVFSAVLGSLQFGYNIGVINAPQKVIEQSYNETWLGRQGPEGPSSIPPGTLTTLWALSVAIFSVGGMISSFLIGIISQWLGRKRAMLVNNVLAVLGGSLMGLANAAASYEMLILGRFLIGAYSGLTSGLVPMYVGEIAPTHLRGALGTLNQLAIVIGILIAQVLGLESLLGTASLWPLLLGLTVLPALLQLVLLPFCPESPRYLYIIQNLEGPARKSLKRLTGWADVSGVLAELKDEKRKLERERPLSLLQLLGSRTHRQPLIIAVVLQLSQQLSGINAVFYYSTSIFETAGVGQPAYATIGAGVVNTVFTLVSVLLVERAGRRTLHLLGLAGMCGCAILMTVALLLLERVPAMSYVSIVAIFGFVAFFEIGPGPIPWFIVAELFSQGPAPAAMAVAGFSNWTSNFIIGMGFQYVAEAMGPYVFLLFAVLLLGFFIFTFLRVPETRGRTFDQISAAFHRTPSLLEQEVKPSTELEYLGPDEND

T3: hsGLUT4 F314A (human, UniProt P14672 1-509)
T3 sequence: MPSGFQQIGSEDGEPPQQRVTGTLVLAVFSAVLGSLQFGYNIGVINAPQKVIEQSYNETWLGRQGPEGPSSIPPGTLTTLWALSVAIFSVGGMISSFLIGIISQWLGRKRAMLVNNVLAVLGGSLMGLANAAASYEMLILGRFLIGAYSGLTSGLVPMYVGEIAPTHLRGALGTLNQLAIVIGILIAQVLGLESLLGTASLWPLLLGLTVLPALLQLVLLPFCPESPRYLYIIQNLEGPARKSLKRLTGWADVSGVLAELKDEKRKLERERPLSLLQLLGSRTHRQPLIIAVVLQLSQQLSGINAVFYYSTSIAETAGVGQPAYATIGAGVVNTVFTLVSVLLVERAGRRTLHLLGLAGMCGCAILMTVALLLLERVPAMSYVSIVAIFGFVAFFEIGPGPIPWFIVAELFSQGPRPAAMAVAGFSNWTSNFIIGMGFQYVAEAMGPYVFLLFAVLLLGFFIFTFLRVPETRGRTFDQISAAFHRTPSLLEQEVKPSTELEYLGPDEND

T4: hsGLUT4 E315A (human, UniProt P14672 1-509)
T4 sequence: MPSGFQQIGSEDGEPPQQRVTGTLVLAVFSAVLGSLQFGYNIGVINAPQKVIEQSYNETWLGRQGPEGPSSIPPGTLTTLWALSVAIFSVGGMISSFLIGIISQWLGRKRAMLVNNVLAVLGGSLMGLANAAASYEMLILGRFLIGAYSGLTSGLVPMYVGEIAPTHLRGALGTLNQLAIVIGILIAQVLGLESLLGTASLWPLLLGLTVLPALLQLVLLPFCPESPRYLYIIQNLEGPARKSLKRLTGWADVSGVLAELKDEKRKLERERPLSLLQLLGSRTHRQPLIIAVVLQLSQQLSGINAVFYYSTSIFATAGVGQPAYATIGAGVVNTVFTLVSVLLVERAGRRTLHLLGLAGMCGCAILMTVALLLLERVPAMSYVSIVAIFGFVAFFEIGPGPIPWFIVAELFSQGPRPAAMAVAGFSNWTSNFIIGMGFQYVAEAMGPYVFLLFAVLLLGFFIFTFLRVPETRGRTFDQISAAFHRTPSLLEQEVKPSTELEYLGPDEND


Assays:
Assay in all cases: flow cytometry, alanine-scan library in HEK-293T
[1] = target: T1, hsGLUT4 L155A
Procedure: (§1) Because of the state-dependence of the isolated MAbs, we next wished to understand the mechanism by which each MAb could recognize GLUT4 in its different conformations. The residues required for binding of each MAb were determined using shotgun mutagenesis comprehensive alanine scanning (Davidson E & Doranz B J (2014) A High-Throughput Shotgun Mutagenesis Approach to Mapping B-cell Antibody Epitopes. Immunology, which is hereby incorporated by reference in its entirety). All residues of hsGLUT4 were individually mutated to alanine, with existing alanines changed to serines. Mutations were obtained for 508 of the 509 residues of GLUT4 (excluding the initiating methionine). The entire mutation library was transfected into human HEK-293T cells in a 384-well array format (one clone per well) and assessed for immunoreactivity using high-throughput flow cytometry.
(§2) HEK-293T cells were transfected by CaPO₄ with plasmids in 6-well culture plates (Falcon) at 750,000 cells/well. At 48 hours post transfection, cells were stained with anti-V5 and anti-GLUT4 MAbs (purified scFv, 2 μg/ml) followed by biotinylated goat anti-mouse or human antibody (1:500) and streptavidin-PerCP (1:500). Fluorescence was detected using an Intellicyt high-throughput flow cytometer (HTFC; Intellicyt, Albuquerque, N. Mex.). For cell permeabilization, cells were treated with saponin at 0.1% in PBS for 20 minutes. To discriminate intact (live) and permeabilized (dead) cells without the use of detergent, propidium iodide (PI) was added to HEK-293T cells at 1 ug/ml just prior to flow cytometry. Where indicated, cytochalasin B (Sigma) was used at a final concentration of 10 uM and phloretin (Sigma) was used at a final concentration of 100 uM, each added in 10% NGS for 30 minutes prior to antibody staining as well as included with the primary antibody.

[2] = target: T2, hsGLUT4 R416A
Procedure: as §1, §2

[3] = target: T3, hsGLUT4 F314A
Procedure: as §1, §2

[4] = target: T4, hsGLUT4 E315A
Procedure: as §1, §2

Row | Molecule | % of binding to wild type GLUT4 [1] | % of binding to wild type GLUT4 [2] | % of binding to wild type GLUT4 [3] | % of binding to wild type GLUT4 [4]
1 | 1F8 (antibody) | 91% | 73% | 91% | 93%
2 | AB101 (scFv, Chicken-derived clone used as a control; the four lead clones were tested as scFv-human IgG1 Fc; also called MAb AB101) scFv: ALTQPSSVSANPGETVKITCSGSSNSYGWYQQKSPGSAPVTVIYYNDKRPSDIPSRFSGSKSDSTHTLTITGVRAEDEAVYFCGSYDSTYVGIFGAGTTLTVLGQSSRSSGGGGSSGGGGSAVTLDESGGGLQTPGGTLSLVCKASGFTFSSNAMGWVRQAPGKGLEWVAGISSDGRYTKYGSAVKGRATISRDNGQSTVRLQLNNLRAEDTGTYFCAKAFGNNYRRIYAGQIDAWGHGTEVIVSS | 88% | 69% | 91% | 130%
3 | AB108 (Fc fusion, Bivalent scFv-Fc; also called MAb AB108; not shown: Fc fragment of human IgG1, cloned in frame with the scFv) scFv: ALTQPSSVSANLGGTVKITCSGSSGSYGWYQQKAPGSAPVTLIYRNDKRPSDIPSRFSGSESGSTGTLTITGVQAEDEAVYFCGGYDSSAGYAAFGAGTTLTVLGQSSRSSGGGGSSGGGGSAVTLDESGGGLQTPGGALSLVCKASGFTFSSHGMGWVRQAPGKGLEWVGSISTGRYTFYAPAVKGRATISRDNGQSTLRLQLNNLRAEDTGTYYCTKCAGLNGCGGGEIDAWGHGTEVIVSS | 42% | 67% | 92% | 96%
4 | AB111 (Fc fusion, Bivalent scFv-Fc; also called MAb AB111; not shown: Fc fragment of human IgG1, cloned in frame with the scFv) scFv: ALTQPSSVSANPGETVKITCSGSGSWYGWFQQKSPGSAPVTVIYSNDKRPSDIPSRFSGSKSGSTSTLTITGVQVEDEAVYYCGNWDIFGAGTTLTVLGQSSRSSGGGGSSGGGGSAVTLDESGGGLQTPGGALSLVCKASGFTFSSHGMGWVRQAPGKGLEWVASISTGRYTFYAPAVKGRATISRDNGQSTVRLQLNNLRAEDTATYYCTKCAGLNGCGGGEIDAWGHGTEVIVSS | 57% | 157% | 166% | 164%
